The record followed here is the supplement of paper PMC9112550, “Optimization of the antimicrobial peptide Bac7 by deep mutational scanning” (BMC Biology, 2022).
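Note: peptides expressed intracellularly from a pBAD plasmid library in pooled LB shake-flask culture, induced with 0.3% L-arabinose, DNA abundance read by NGS, three biological replicates, DESeq2 with apeglm shrinkage.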

In the series the test system is Escherichia coli TOP10. As to the kind of experiment: shrunken log2 fold change of peptide-encoding DNA abundance (4.5 h post-induction vs induction); higher = less antimicrobial activity (less host growth inhibition). To be noted: time post-induction: 4.5 h; library: site-saturation at positions 5, 18, 19, 20.
On to RRIRTRPPRLPRPRPRPGSEPRP, for which the “shrunken log2 fold change” value is -0.0538.

Take RRIRERPPRLPRPRPRPSIDPRP: the “shrunken log2 fold change” value is -0.0545.

In the case of RRIRVRPPRLPRPRPRPVYHPRP, the “shrunken log2 fold change” value was -0.544. Regarding RRIRKRPPRLPRPRPRPCHAPRP, the “shrunken log2 fold change” value is 0.384. The figure for RRIRKRPPRLPRPRPRPGIQPRP is 0.0822.

As for RRIRKRPPRLPRPRPRPRDAPRP, the “shrunken log2 fold change” value is 0.558. As to RRIRTRPPRLPRPRPRPFLPPRP, the “shrunken log2 fold change” value is -0.279. Turning to RRIRNRPPRLPRPRPRPVHQPRP, the “shrunken log2 fold change” value was -0.121. On to RRIRGRPPRLPRPRPRPYTNPRP, for which the “shrunken log2 fold change” value is -0.313. Under RRIRCRPPRLPRPRPRPMWNPRP stands -0.195.

RRIRERPPRLPRPRPRPHCDPRP: the “shrunken log2 fold change” value is 0.023. For RRIRNRPPRLPRPRPRPTSVPRP, the “shrunken log2 fold change” value is 0.184. Consider RRIRGRPPRLPRPRPRPCWAPRP, for which the “shrunken log2 fold change” value stood at 0.485.

Take RRIRLRPPRLPRPRPRPITFPRP: the “shrunken log2 fold change” value stood at 0.0415. In the case of RRIRKRPPRLPRPRPRPKPAPRP, the “shrunken log2 fold change” value turned out to be 1.11. For the sequence RRIRTRPPRLPRPRPRPPSTPRP, the “shrunken log2 fold change” value was 0.186. The figure for RRIRQRPPRLPRPRPRPKSCPRP is 0.000945; for RRIRYRPPRLPRPRPRPTQLPRP it is -0.46. Take RRIRNRPPRLPRPRPRPGSQPRP: the “shrunken log2 fold change” value was found to be 0.0302.

Consider RRIRHRPPRLPRPRPRPKLFPRP, for which the “shrunken log2 fold change” value stood at 0.0628. As for RRIRGRPPRLPRPRPRPCGFPRP, the “shrunken log2 fold change” value is 1.25.

For RRIRPRPPRLPRPRPRPSTHPRP, the “shrunken log2 fold change” value is -0.203.

Consider RRIRKRPPRLPRPRPRPTQSPRP, for which the “shrunken log2 fold change” value turned out to be 0.441. RRIRNRPPRLPRPRPRPQWAPRP: the “shrunken log2 fold change” value is -0.188. Consider RRIRMRPPRLPRPRPRPYAMPRP, for which the “shrunken log2 fold change” value was -0.155. For RRIRSRPPRLPRPRPRPGAQPRP, the “shrunken log2 fold change” value stood at 0.68. Regarding RRIRTRPPRLPRPRPRPYIFPRP, the “shrunken log2 fold change” value was -0.947. The figure for RRIRGRPPRLPRPRPRPQANPRP is 0.111; for RRIRVRPPRLPRPRPRPKGSPRP it is 0.0616. In the case of RRIRERPPRLPRPRPRPMGFPRP, the “shrunken log2 fold change” value is 0.0499. Under RRIRLRPPRLPRPRPRPHWFPRP stands -0.08; under RRIRQRPPRLPRPRPRPRCEPRP, -0.128. For RRIRIRPPRLPRPRPRPTPQPRP, the “shrunken log2 fold change” value was -0.117.

In the case of RRIRHRPPRLPRPRPRPGWKPRP, the “shrunken log2 fold change” value is 0.0976. The figure for RRIRARPPRLPRPRPRPKWAPRP is 0.688; for RRIRGRPPRLPRPRPRPCLAPRP it is 0.599; for RRIRCRPPRLPRPRPRPYTPPRP it is -1.23. Consider RRIRGRPPRLPRPRPRPLDLPRP, for which the “shrunken log2 fold change” value was 0.717. Under RRIRGRPPRLPRPRPRPAFMPRP stands 0.585. With RRIRERPPRLPRPRPRPHKKPRP, the “shrunken log2 fold change” value worked out at 0.0621. On to RRIRKRPPRLPRPRPRPDMEPRP, for which the “shrunken log2 fold change” value came to 0.092.

With RRIRGRPPRLPRPRPRPMGFPRP, the “shrunken log2 fold change” value came out at 0.315. As for RRIRDRPPRLPRPRPRPDSDPRP, the “shrunken log2 fold change” value came out at 0.0999. With RRIRIRPPRLPRPRPRPRSVPRP, the “shrunken log2 fold change” value was -0.056. In the case of RRIRMRPPRLPRPRPRPFPKPRP, the “shrunken log2 fold change” value stood at 0.385.

In the case of RRIRYRPPRLPRPRPRPNVLPRP, the “shrunken log2 fold change” value is -0.554.

RRIRQRPPRLPRPRPRPQQIPRP: the “shrunken log2 fold change” value is -0.0822. In the case of RRIRARPPRLPRPRPRPESDPRP, the “shrunken log2 fold change” value is 1.17.

Turning to RRIRERPPRLPRPRPRPWWAPRP, the “shrunken log2 fold change” value was -0.0718. Turning to RRIRVRPPRLPRPRPRPVKRPRP, the “shrunken log2 fold change” value is 0.0275. Turning to RRIRERPPRLPRPRPRPPARPRP, the “shrunken log2 fold change” value turned out to be 0.451. The figure for RRIRPRPPRLPRPRPRPECMPRP is 0.212.

For the sequence RRIRCRPPRLPRPRPRPFFYPRP, the “shrunken log2 fold change” value is -0.32. Turning to RRIRKRPPRLPRPRPRPANCPRP, the “shrunken log2 fold change” value came out at 0.0966. On to RRIRHRPPRLPRPRPRPESKPRP, for which the “shrunken log2 fold change” value is -0.135. With RRIRSRPPRLPRPRPRPALFPRP, the “shrunken log2 fold change” value worked out at 0.069. For RRIRIRPPRLPRPRPRPKTCPRP, the “shrunken log2 fold change” value amounted to 0.179. On to RRIRARPPRLPRPRPRPEVPPRP, for which the “shrunken log2 fold change” value stood at 0.162. Consider RRIRIRPPRLPRPRPRPLFTPRP, for which the “shrunken log2 fold change” value was -0.374.

As for RRIRWRPPRLPRPRPRPIFSPRP, the “shrunken log2 fold change” value was 0.0085. RRIRGRPPRLPRPRPRPALEPRP: the “shrunken log2 fold change” value is 1.11. In the case of RRIRQRPPRLPRPRPRPTNSPRP, the “shrunken log2 fold change” value is -0.225. Take RRIRPRPPRLPRPRPRPCCTPRP: the “shrunken log2 fold change” value was -0.12. As to RRIRNRPPRLPRPRPRPGDMPRP, the “shrunken log2 fold change” value was -0.21. For RRIRPRPPRLPRPRPRPYVNPRP, the “shrunken log2 fold change” value is -1.34. With RRIRRRPPRLPRPRPRPRVPPRP, the “shrunken log2 fold change” value was found to be 0.745. In the case of RRIRTRPPRLPRPRPRPASVPRP, the “shrunken log2 fold change” value amounted to 0.00118. For RRIRIRPPRLPRPRPRPTYMPRP, the “shrunken log2 fold change” value is -0.707. As for RRIRERPPRLPRPRPRPKPFPRP, the “shrunken log2 fold change” value is -0.37. In the case of RRIRRRPPRLPRPRPRPVARPRP, the “shrunken log2 fold change” value was determined as 0.896. For RRIRDRPPRLPRPRPRPANEPRP, the “shrunken log2 fold change” value amounted to 0.0557. On to RRIRFRPPRLPRPRPRPNPSPRP, for which the “shrunken log2 fold change” value was -0.125. As to RRIRMRPPRLPRPRPRPPQDPRP, the “shrunken log2 fold change” value was 1.24. The figure for RRIRRRPPRLPRPRPRPLGWPRP is 1.07. In the case of RRIRGRPPRLPRPRPRPRCPPRP, the “shrunken log2 fold change” value was found to be 1.4. As for RRIRDRPPRLPRPRPRPKYPPRP, the “shrunken log2 fold change” value was determined as 0.0118. For RRIRERPPRLPRPRPRPWVRPRP, the “shrunken log2 fold change” value is -0.122. Take RRIRYRPPRLPRPRPRPHCQPRP: the “shrunken log2 fold change” value was -0.297.

Consider RRIRERPPRLPRPRPRPMEGPRP, for which the “shrunken log2 fold change” value came out at 0.00131. Turning to RRIRTRPPRLPRPRPRPETQPRP, the “shrunken log2 fold change” value came to 0.205. With RRIRGRPPRLPRPRPRPLLHPRP, the “shrunken log2 fold change” value amounted to 0.762.

As to RRIRKRPPRLPRPRPRPAMFPRP, the “shrunken log2 fold change” value came to 0.337. On to RRIRVRPPRLPRPRPRPTHLPRP, for which the “shrunken log2 fold change” value came out at 0.37.

As for RRIRVRPPRLPRPRPRPCTSPRP, the “shrunken log2 fold change” value is -0.145. Consider RRIRDRPPRLPRPRPRPAMDPRP, for which the “shrunken log2 fold change” value came out at 0.335. With RRIRERPPRLPRPRPRPCFVPRP, the “shrunken log2 fold change” value was -0.151.

For RRIRGRPPRLPRPRPRPGRIPRP, the “shrunken log2 fold change” value was 0.153. For the sequence RRIRGRPPRLPRPRPRPADMPRP, the “shrunken log2 fold change” value was 0.373. Turning to RRIRGRPPRLPRPRPRPICDPRP, the “shrunken log2 fold change” value is 0.717. The figure for RRIRWRPPRLPRPRPRPLKLPRP is -0.225; for RRIRTRPPRLPRPRPRPMFIPRP it is -0.305; for RRIRVRPPRLPRPRPRPDVAPRP it is -0.0974. Consider RRIRYRPPRLPRPRPRPVYLPRP, for which the “shrunken log2 fold change” value is 0.00668.

For RRIRQRPPRLPRPRPRPVVSPRP, the “shrunken log2 fold change” value was -0.179. Consider RRIRQRPPRLPRPRPRPYNVPRP, for which the “shrunken log2 fold change” value was -0.0265.

For RRIRSRPPRLPRPRPRPTYVPRP, the “shrunken log2 fold change” value is -0.098. Consider RRIRRRPPRLPRPRPRPDMEPRP, for which the “shrunken log2 fold change” value is -0.0393. As for RRIRHRPPRLPRPRPRPMCHPRP, the “shrunken log2 fold change” value is -0.00674. Take RRIRNRPPRLPRPRPRPMFTPRP: the “shrunken log2 fold change” value was -0.211.

With RRIRRRPPRLPRPRPRPGYSPRP, the “shrunken log2 fold change” value is 1.84. As for RRIRDRPPRLPRPRPRPSQGPRP, the “shrunken log2 fold change” value was -0.0558. In the case of RRIRERPPRLPRPRPRPHANPRP, the “shrunken log2 fold change” value is -0.332. Consider RRIRPRPPRLPRPRPRPSLVPRP, for which the “shrunken log2 fold change” value is -0.222. For the sequence RRIRQRPPRLPRPRPRPCQLPRP, the “shrunken log2 fold change” value is -0.0105. The figure for RRIRWRPPRLPRPRPRPDFCPRP is 0.247. Regarding RRIRDRPPRLPRPRPRPVHTPRP, the “shrunken log2 fold change” value is -0.00587. For RRIRKRPPRLPRPRPRPMILPRP, the “shrunken log2 fold change” value is -0.388. Under RRIRGRPPRLPRPRPRPTPTPRP stands 0.98; under RRIRQRPPRLPRPRPRPCLHPRP, -0.0247; under RRIRCRPPRLPRPRPRPEKGPRP, 0.0373.

Take RRIRIRPPRLPRPRPRPTRVPRP: the “shrunken log2 fold change” value came out at 0.167. For RRIRIRPPRLPRPRPRPSTKPRP, the “shrunken log2 fold change” value was -1.14. Regarding RRIRGRPPRLPRPRPRPFMFPRP, the “shrunken log2 fold change” value is 1.16. Under RRIRFRPPRLPRPRPRPLFKPRP stands -0.279. Under RRIRTRPPRLPRPRPRPFARPRP stands 0.00253; under RRIRGRPPRLPRPRPRPYDAPRP, -0.317. With RRIRMRPPRLPRPRPRPHNMPRP, the “shrunken log2 fold change” value was -0.243. As to RRIRTRPPRLPRPRPRPSCCPRP, the “shrunken log2 fold change” value was -0.341. In the case of RRIRTRPPRLPRPRPRPEKRPRP, the “shrunken log2 fold change” value was -0.0149. Turning to RRIRSRPPRLPRPRPRPNKHPRP, the “shrunken log2 fold change” value was -0.507. The figure for RRIRTRPPRLPRPRPRPNPGPRP is -0.0312; for RRIRPRPPRLPRPRPRPQTGPRP it is 0.142; for RRIRARPPRLPRPRPRPCLSPRP it is 0.233.

As to RRIRERPPRLPRPRPRPANTPRP, the “shrunken log2 fold change” value was found to be 1.45. With RRIRKRPPRLPRPRPRPEPRPRP, the “shrunken log2 fold change” value stood at 0.991.
